T1: recombinant human full-length TrpRS (SY variant) with C-terminal His6-tag
T1 chain: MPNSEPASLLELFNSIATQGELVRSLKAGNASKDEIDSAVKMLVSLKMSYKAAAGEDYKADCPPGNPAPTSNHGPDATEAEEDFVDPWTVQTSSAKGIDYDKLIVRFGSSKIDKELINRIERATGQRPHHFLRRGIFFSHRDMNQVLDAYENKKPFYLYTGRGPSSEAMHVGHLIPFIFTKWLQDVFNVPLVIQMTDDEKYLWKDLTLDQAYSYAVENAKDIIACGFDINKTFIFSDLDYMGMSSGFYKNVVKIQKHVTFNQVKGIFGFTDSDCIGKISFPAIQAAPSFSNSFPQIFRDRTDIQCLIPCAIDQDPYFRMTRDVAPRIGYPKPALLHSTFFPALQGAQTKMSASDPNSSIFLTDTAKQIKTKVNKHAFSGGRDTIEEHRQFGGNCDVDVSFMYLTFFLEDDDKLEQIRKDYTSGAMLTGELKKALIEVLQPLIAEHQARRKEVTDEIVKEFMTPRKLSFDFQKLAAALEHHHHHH


Tests used:
[1] = target: the molecule itself; assay: SDS-PAGE, unheated against heated samples; band at roughly 86 kDa disappears on heating, band at roughly 43 kD remains
[2] = target: T1, recombinant human full-length TrpRS (SY …)

| Protein | binding result [1] | cleavage seen on 12.5% SDS-polyacrylamide gels [2] |
| --- | --- | --- |
| T2-TrpRS (SY variant, without 6-His tag) produced by E. coli expression of the vector of SEQ ID NO: 70 (pAS-001) (other, the entries describe two such monomers associating non-covalently into a dimer; also called T2-TrpRS product) SAKGIDYDKLIVRFGSSKIDKELINRIERATGQRPHHFLRRGIFFSHRDMNQVLDAYENKKPFYLYTGRGPSSEAMHVGHLIPFIFTKWLQDVFNVPLVIQMTDDEKYLWKDLTLDQAYSYAVENAKDIIACGFDINKTFIFSDLDYMGMSSGFYKNVVKIQKHVTFNQVKGIFGFTDSDCIGKISFPAIQAAPSFSNSFPQIFRDRTDIQCLIPCAIDQDPYFRMTRDVAPRIGYPKPALLHSTFFPALQGAQTKMSASDPNSSIFLTDTAKQIKTKVNKHAFSGGRDTIEEHRQFGGNCDVDVSFMYLTFFLEDDDKLEQIRKDYTSGAMLTGELKKALIEVLQPLIAEHQARRKEVTDEIVKEFMTPRKLSFDFQ | binds | – |
| PMN elastase (protein) IVGGRRARPHAWPFMVSLQLRGGHFCGATLIAPNFVMSAAHCVANVNVRAVRVVLGAHNLSRREPTRQVFAVQRIFENGYDPVNLLNDIVILQLNGSATINANVQVAQLPAQGRRLGNGVQCLAMGWGLLGRNRGIASVLQELNVTVVTSLCRRSNVCTLVRGRQAGVCFGDSGSPLVCNGLIHGIASFVRGGCASGLYPDAFAPVAQFVNWIDSIIQ | – | cleavage of full-length TrpRS (SY variant) by PMN elastase generated a major fragment of about 46 kDa (SEQ ID NO: 25) and a minor fragment of about 43.5 kDa (SEQ ID NO: 24) |

Reference: patent US20060024287A1 (published 2006)
